B1: Azurin, P00282 (parent)
chain: MLRKLAAVSLLSLLSAPLLAAECSVDIQGNDQMQFNTNAITVDKSCKQFTVNLSHPGNLPKNVMGHNWVLSTAADMQGVVTDGMASGLDKDYLKPDDSRVIAHTKLIGSGEKDSVTFDVSKLKEGEQYMFFCTFPGHSALMKGTLTLK

Variants of: B1
Conditions: Pseudomonas aeruginosa (strain ATCC 15692 / DSM 22644 / CIP 104116 / JCM 14847 / LMG 12228 / 1C / PRS 101 / PAO1); pH 7; 25 °C; GdnHCl; Fluorescence, CD; Tris-HCl 100 mM; reversible: Yes; structure 5AZU; whole UniProt chain shown

Variant	ddG of mutation (higher = less stable) [kcal/mol]	denaturant m value [kcal/mol/M]	unfolding free energy [kcal/mol]
V51A	1.67	4.54	11.2
L70A	1.79	4.42	11.1
W68A	3.35	4.78	9.56
L145A	1.67	4.54	11.2
V42A	1.67	4.54	11.2
Y128A	3.59	4.42	9.32
L53A	1.67	4.78	11.2
I101A	1.43	4.78	11.5
V115A	0.96	4.3	11.9
A102G	1.67	4.3	11.2
V25A	0.96	4.06	11.9
M141A	2.87	4.18	10
V80G	3.11	4.18	9.8
I40A	2.39	4.54	10.5
I27A	3.35	4.3	9.56
